From patent US9434716B2, “Antigen binding proteins” (Glaxo Group Limited, priority 2011, dated 2016)
Entries after “also recorded” stand apart in the source; their conditions may differ.

What was measured:
human SAP [1] = molecular target: T1, human SAP (Homo sapiens, UniProt P02743); test: Immunoradiometric assay, human SAP captured by immobilised sheep polyclonal anti-human SAP antibody; type: binding; settings: all levels of human SAP input; mean of 3 replicates
T1 construct: from tissue; host or cells: natural human SAP, purified
Source text: (§1) SAP-K was selected from among the 6 different, most avidly binding, mouse IgG2a monoclonals, derived by standard techniques from immunization with purified human SAP and a conventional fusion to produce hybridomas which were cloned by routine methods. […] This was the case regardless of whether the human SAP had been directly immobilised on plastic surfaces by non-specific adherence or by covalent attachment, or by the specific calcium dependent binding of SAP to immobilised ligands, whether amyloid fibrils or the small molecule ligand, phosphoethanolamine. SAP-K also bound well to directly immobilised SAP in the presence or absence of calcium, and if the SAP had previously been complexed with CPHPC and then covalently ‘fixed’ in the decameric SAP-CPHPC complex (Pepys, M. B. et al (2002) Targeted pharmacological depletion of serum amyloid P component for treatment of human amyloidosis. Nature, 417: 254-259; Kolstoe, S. E. et al (2009) Molecular dissection of Alzheimer's disease neuropathology by depletion of serum amyloid P component. Proc. Natl. Acad. Sci. USA, 106: 7619-7623). SAP-E also bound well to human SAP in all these different configurations.
Each point is the mean of 3 replicates.

human SAP [2] = molecular target: T1, human SAP; test: Competition ELISA with chimeric anti-SAP mAb; type: binding; settings: human SAP coated at 1 μg/mL; purified murine mAb
Source text: A constant concentration of chimeric anti-SAP mAb was mixed with serial diluted (1:1) amounts of mouse anti-SAP mAbs. Plates were washed and the amount of chimeric antibody bound to the immobilised human SAP was detected using goat anti-human Kappa Light chain peroxidase conjugate (Sigma, A7164). The ELISA was developed using O-phenylenediamine dihydrochloride (OPD) peroxidase substrate (Sigma, P9187).

human SAP [3] = molecular target: T1, human SAP; test: Biacore (BIAcoreX), human SAP covalently immobilised on the chip; type: binding; settings: mean and SD of 3 replicate measurements
[4] = tested on: mice with systemic AA amyloidosis; test: Low dose SAP-E and SAP-K in clearing systemic AA amyloid deposits (Example 17); type: in vivo, mouse; settings: low doses
Experimental: AA amyloidosis was induced and confirmed in wild-type C57BL/6 mice as detailed in Example 10 above. After loading the amyloid deposits with human SAP as also detailed in Example 10, groups of mice (n=10 each) were treated with single doses of either 0.5 mg and 1 mg per mouse of the two different antibodies, or 6 repeated doses of 0.15 mg, given at 3 or 4 day intervals. […] All were killed on day 29 for estimation of amyloid load by Congo red staining.

human SAP [5] = molecular target: T1, human SAP; test: Biacore kinetics, human SAP captured on immobilised O-phosphoethanolamine; type: binding; settings: CM5 chip, calcium; bivalent analyte model; 25° C.; for comparison only, avidity effect
Experimental: O-phosphoethanolamine was immobilised on a Biacore CM5 chip by primary amine coupling in accordance with the manufacturer's instructions. Human SAP was then captured on the surface in the presence of calcium chloride, in order to replicate in the Biacore system in vitro, the precise orientation of SAP molecules bound to amyloid fibrils in vivo. Anti SAP antibodies were then passed over this surface at 256, 64, 16, 4, 1 nM and a binding sensorgrams obtained. Analysis was carried out at 25° C. using 4% BSA, 10 mM Tris, 140 mM NaCl, 2 mM CaCl2, 0.05% surfactant P20, 0.02% Na N3, pH 8.0 as running buffer. […] Data generated were double referenced with a buffer injection over the human SAP surface and analyzed using the bivalent analyte model in the Biacore T100 evaluation software.

human CRP = molecular target: T2, human CRP (Homo sapiens, UniProt P02741); test: Western blotting against CRP; type: binding; settings: western blot, 500 ng and 100 ng loaded
T2 sequence (P02741 19-224): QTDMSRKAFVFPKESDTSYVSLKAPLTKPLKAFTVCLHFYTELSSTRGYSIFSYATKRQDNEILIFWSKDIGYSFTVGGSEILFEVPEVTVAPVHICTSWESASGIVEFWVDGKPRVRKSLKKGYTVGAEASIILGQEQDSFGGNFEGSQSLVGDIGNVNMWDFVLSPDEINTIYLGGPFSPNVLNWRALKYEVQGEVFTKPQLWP

human SAP [6] = molecular target: T1, human SAP; test: Binding of mouse monoclonals to immobilised human SAP in vitro
Source text: SAP-E and SAP-K are from two groups of anti-SAP monoclonals, each group having been tested separately for their binding to human SAP in vitro.
as §1

[7] = tested on: mice with systemic AA amyloidosis; test: SAP-E versus SAP-K in clearing systemic AA amyloid deposits (Example 16); type: in vivo, mouse; settings: lower doses
Experimental: AA amyloidosis was induced and confirmed in wild-type C57BL/6 mice as detailed in Example 10 above. After loading the amyloid deposits with human SAP also detailed in Example 10, groups of mice were treated with 3 mg and 1 mg per mouse of the two different antibodies. […] All mice were bled for assay of circulating anti-SAP antibody at days 1, 5 and 15 after dosing with antibody, and all were killed on day 21 for estimation of amyloid load by Congo red staining. All sera were assayed for anti-SAP activity using a robust immunoradiometric assay standardised with purified SAP-E and SAP-K respectively, spiked at known concentrations into normal mouse serum.
Amyloid load was scored by four independent expert observers all blinded to the identity of each tissue examined. The scores of all observers were, as usual highly concordant and for statistical analysis, the total scores of all observers for both spleen and liver for each mouse were summed.

human SAP [8] = molecular target: T1, human SAP; test: Western blotting and fragment epitope mapping (CNBr, chymotrypsin); type: binding
Source text: This is consistent with the kinetic stability and resistance to denaturation of SAP (Manning, M. and Colón, W. (2004) Biochemistry, 43: 11248-11254).
B, SDS-PAGE analysis of SAP cleaved with CNBr. […] These were precisely confirmed by mass spectrometry. […] C, SDS-PAGE analysis of SAP digested with chymotrypsin. Left panel: Coomassie blue stain; lane 1, untreated control SAP; lane 2, SAP after chymotrypsin digestion, showing the expected major fragments corresponding to residues 1-140 and 145-204. These were precisely confirmed by mass spectrometry. Right panel: Western blot with SAP-E showing intense staining of intact untreated SAP in lanes 1 (500 ng loaded) and 2 (100 ng), and also residual intact SAP in lanes 3 and 4 which contained the chymotrypsin digested SAP at different loadings. Very weak binding of SAP-E to the residue 1-140 fragment is seen only in lane 3 which was most heavily loaded. […] D, Sequence comparison between human SAP (h) and mouse SAP (m) for residues 136-147. Top panel, differences indicated above by residues shown in black in the murine sequence. Bottom panel, position of this extended loop with 140Y at its apex shown in white in the 3D subunit structure of human SAP. The different residues in the murine sequence are shown in black. The grey spheres represent the calcium atoms bound in the ligand binding pocket.

native human SAP = molecular target: T3, native human SAP (Homo sapiens, UniProt P02743); test: Double immunodiffusion in agarose gel; type: binding; settings: isolated pure human SAP and whole human serum
T3 construct: against both isolated pure human SAP and whole human serum; from tissue; host or cells: whole human serum, and isolated pure human SAP
T3 sequence (P02743 20-223): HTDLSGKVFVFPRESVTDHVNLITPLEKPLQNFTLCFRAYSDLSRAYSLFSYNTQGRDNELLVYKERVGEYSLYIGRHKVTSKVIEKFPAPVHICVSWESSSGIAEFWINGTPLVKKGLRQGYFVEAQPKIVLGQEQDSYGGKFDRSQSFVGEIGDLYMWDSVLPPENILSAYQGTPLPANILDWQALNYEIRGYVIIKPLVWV

T1 sequence (P02743 20-223): as above

competition with SAP-K chimera (human SAP [2]): no competition
ka (human SAP [5]): 31500 M⁻¹ s⁻¹
kd (human SAP [5]): 1.51e-08 s⁻¹
reaction with isolated pure human CRP (human CRP): did not react at all
binding to immobilised human SAP (human SAP [6]; abundant immobilised SAP, coating solution 100 μg/ml): more binding of SAP-E than SAP-K
binding to native human SAP in western blotting (human SAP [8]; after agarose gel electrophoresis in physiological buffers): bound
binding to human SAP in western blotting from reduced SDS-PAGE (human SAP [8]; denatured human SAP): only SAP-E bound
epitope recognised (human SAP [8]; residues of human SAP, CNBr and chymotrypsin fragments): region 140-158
B1: SAP-E: mouse IgG2a monoclonal anti-human SAP antibody, VH SEQ ID NO:7, VL SEQ ID NO:9 (antibody, V domains shown)
VH: QASLQQSGTELVRSGASVKMSCKASGFTFATYNMHWIKQTPGQGLEWIGYIYPGDGNANYNQQFKGKATLTADTSSNTAYMQISSLTSEDSAVYFCARGDFDYDGGYYFDSWGQGTTLTVSS
VL: DIQMTQSPASLSASVGETVTITCRASENIYSYLAWYQQKQGRSPQLLVHNAKTLAEGVPSRVSGSGSGTHFSLKINGLQPEDFGNYYCQHHYGAPLTFGAGTKLELK
binding to human SAP captured by sheep polyclonal anti-human SAP (human SAP [1]): SAP-E bound better than SAP-K at all levels of human SAP input; also recorded: Substantially more SAP-E than SAP-K bound at all concentrations of human SAP offered
kd (human SAP [3]): 6 ± 4 × 10^−5 sec^−1
potency in clearing amyloid, SAP-E compared with SAP-K [4]: again apparently more potent than SAP-K
binding to human SAP in vitro (human SAP [6]; compared within the group of monoclonals): strongest binding to SAP, within their groups
potency in clearing amyloid, SAP-E compared with SAP-K [7]: apparently more potent than SAP-K at the lower doses
binding to native human SAP (immunoprecipitation) (native human SAP): bound apparently equally well to native human SAP
